Source: publication PMC2156102

Legend:
[1] = target: LexABD-Rac1G12V (fusion of the LexA DNA binding domain with Drosophila Rac1 G12V) (UniProt P40792); test: yeast two-hybrid, ß-galactosidase activity in total protein extracts; conditions: parent: est. 6.4; read off a plot
[2] = target: LexABD-Rac1G12V (fusion of the LexA DNA binding domain with Drosophila Rac1 G12V) (Drosophila) (UniProt P40792); test: two-hybrid; same fusions; quantification of ß-galactosidase activity in liquid assays on total protein extracts, three measurements

With “GAL4AD-LbGAP (fusion of the GAL4 activation domain with LbGAP) R115A” the response (ß-Galactosidase units) [1] was 0.34.

For “GAL4AD-LbGAP (fusion of the GAL4 activation domain with LbGAP) K111A”, the response (ß-Galactosidase units) [1] was 0.38.

For “GAL4AD-LbGAP (fusion of the GAL4 activation domain with LbGAP) (natural protein)”, the ß-galactosidase activity relative to that of LbGAP with Rac2G12V [2] was 2 fold.

In the case of “LbGAPS190A (GAL4 activation domain fusion) (natural protein)”, the fold lower interaction (ß-galactosidase activity) than wild-type LbGAP [2] is reported as 3 fold.

In the case of “LbGAPR74A (GAL4 activation domain fusion) (natural protein)”, the fold lower interaction (ß-galactosidase activity) than wild-type LbGAP [2] is reported as 3 fold.
